These results are taken from paper PMC10439028, “SGLT5 is the renal transporter for 1,5-anhydroglucitol, a major player in two rare forms of neutropenia” (Cellular and Molecular Life Sciences: CMLS, 2023).

What all share (format): cell-based
Substrate in series [1]: OC[C@H]1OC(O)[C@@H](O)[C@@H](O)[C@@H]1O
Description: Radioactive uptake assay (saturation kinetics) in HEK293T cells expressing mouse SGLT4. The conditions noted are these: other: 30 min, Supplementary Fig. 4; pH 7.4; 37.0 °C. As for the experimental part: (§1) For a typical transporter experiment we proceeded as follows. […] To minimize cell loss during the various washing steps in the radioactive uptake experiments, the wells where the cells were seeded were previously coated with poly- D-lysine, which improved their adhesion to the plastic surface of the wells. For this, each well of the 24-well plates was treated with 200 µl of a 0.01% poly-L-lysine solution for 10 min, washed 3 times with 1 ml of sterilized water and left to dry for 2 h. Only then could the 24-well plates be seeded with the appropriate cell lines and cultured overnight at 37 °C in 5% CO2.
On day two, the radioactive uptake assay could be performed. […]
Once the uptake medium was added to the cells, the plates were incubated at 37 °C in 5% CO2 during the required time. […] In each experiment, the transport activities were calculated after subtracting a “blank” value, corresponding to the radioactivity in the appropriate control cells (HEK293T cells that were stably or transiently transfected with one of the parent plasmids pEF6/MycHisA, pEF6HisB, pUB82 or pUB83 with no inserted cDNA) that were analyzed in parallel. […]
Supplementary Fig. 4: Transport activities for 1,5-anhydroglucitol and mannose of recombinant mouse SGLT4 and SGLT5 isoforms measured in HEK293T cells. […]

Substrate in series [2]: OC[C@H]1OC(O)[C@@H](O)[C@@H](O)[C@@H]1O
The series is described as follows: Radioactive uptake assay (saturation kinetics) in HEK293T cells stably overexpressing human SGLT5-iso2. To be noted: other: transport of the labelled substrate, Michaelis-Menten fit, Fig. 2B; pH 7.4; 37.0 °C.
Text: (§2) This assay was used to study (1) the transport of 1,5-AG or mannose by the HEK293T model cell lines that stably overexpressed the various transporters or by the transiently transfected HEK293T cells using JetPEI® as a transfection agent prepared as described above and (2) the substrate specificity of each transporter.
as §1
(§3) On day two, the radioactive uptake assay could be performed. The cell culture media was removed by aspiration and cells were incubated for 20 min at 37 °C and 5% CO2 with a basal medium (10 mM HEPES, pH 7.4, 1 mM CaCl2, 1 mM MgCl2, 2 mM KCl) containing 140 mM choline chloride to deplete intracellular […] ions. This was subsequently replaced with the uptake medium (basal medium + 140 mM NaCl, 25 μM cytochalasin B, 1 mg/ml BSA) containing either radioactive U-[^14C]-mannose (15,000 cpm/well) or 2-[^3H]-1,5-AG (30,000 cpm/well) and respectively, non-radioactive mannose or 1,5-AG, at the required concentration in the experiment. […]
(§4) Once the uptake medium was added to the cells, the plates were incubated at 37 °C in 5% CO2 during the required time. […] In each experiment, the transport activities were calculated after subtracting a “blank” value, corresponding to the radioactivity in the appropriate control cells (HEK293T cells that were stably or transiently transfected with one of the parent plasmids pEF6/MycHisA, pEF6HisB, pUB82 or pUB83 with no inserted cDNA) that were analyzed in parallel.

Substrate in series [3]: OC[C@H]1OC[C@H](O)[C@@H](O)[C@@H]1O
Described as above. The conditions noted are these: pH 7.4, 37.0 °C.
Text: as §2, §1, §3, §4

Substrate in series [4]: OC[C@H]1OC(O)[C@@H](O)[C@@H](O)[C@@H]1O
The series is described as follows: Radioactive uptake assay (saturation kinetics) in HEK293T cells stably overexpressing human SGLT4. The conditions noted are these: other: transport of the labelled substrate, Fig. 2B; pH 7.4; 37.0 °C.
Text: as §2
as §1, with “CO2. […]” for “CO2.”
as §4

B1: mouse SGLT4 (Mus musculus) (protein)
chain: MNTELVAMEPGVSRNGVRTETTTNPSLGLHTYDIVVVVIYFVFVLAVGIWSSIRASRGTVGGYFLAGRSMTWWPIGASLMSSNVGSGLFIGLAGTGAAGGLAVGGFEWNATFLLLALGWIFVPVYIAAGVVTMPQYLKKRFGGQRIQVYMSVLSLILYIFTKISTDIFSGALFIQMALGWNLYLSTVILLVVTAVYTIAGGLTAVIYTDALQTVIMVGGALVLMFLGFQEVGWYPGLQQLYRQAIPNTTVPNTTCHLPRPDAFHMLRDPVNGDIPWPGLIFGLTVLATWCWCTDQVIVQRSLAAKNLSHAKGGSVLGGYLKILPMFFIVMPGMISRALYPDEVACVDPDICQRVCGARVGCSNIAYPKLVMALMPVGLRGLMIAVIMAALMSSLTSIFNSSSTLFAIDVWQRFRRQASEQELMVVGRLFVVFLVVISILWIPIIQSSNSGQLFDYIQSITSYLAPPITALFLLAIFCKRVNEPGAFWGLMFGLVVGILRMILEFSYSAPACGEMDRRPAVLKDFHYLYFALLLCGLTAIIIVVISFFTEPIPDDKLARLTWWTRNCAVSDLQKKTSVSVNNTEDDNSPGLAGRPVVEGPAGDEEEANTTQGPEQPGALHRSWGKWLWNWFCGLSGAPQQALSPAEKAVLEQKLTSIEEEPLWRRVCNINAIILLAINIFLWGYFA
notes: expressed in transfected cells; host or cells: HEK293T
A word on the Km: it is the substrate concentration at which the rate is half of its maximum. Consider B1, for which the Km in series [1] was 200 µM.

B2: human SGLT5 (Homo sapiens) (protein)
chain: MAANSTSDLHTPGTQLSVADIIVITVYFALNVAVGIWSSCRASRNTVNGYFLAGRDMTWWPIGASLFASSEGSGLFIGLAGSGAAGGLAVAGFEWNATYVLLALAWVFVPIYISSEIVTLPEYIQKRYGGQRIRMYLSVLSLLLSVFTKISLDLYAGALFVHICLGWNFYLSTILTLGITALYTIAGGLAAVIYTDALQTLIMVVGAVILTIKAFDQIGGYGQLEAAYAQAIPSRTIANTTCHLPRTDAMHMFRDPHTGDLPWTGMTFGLTIMATWYWCTDQVIVQRSLSARDLNHAKAGSILASYLKMLPMGLIIMPGMISRALFPDDVGCVVPSECLRACGAEVGCSNIAYPKLVMELMPIGLRGLMIAVMLAALMSSLTSIFNSSSTLFTMDIWRRLRPRSGERELLLVGRLVIVALIGVSVAWIPVLQDSNSGQLFIYMQSVTSSLAPPVTAVFVLGVFWRRANEQGAFWGLIAGLVVGATRLVLEFLNPAPPCGEPDTRPAVLGSIHYLHFAVALFALSGAVVVAGSLLTPPPQSVQIENLTWWTLAQDVPLGTKAGDGQTPQKHAFWARVCGFNAILLMCVNIFFYAYFA
notes: expressed in transfected cells
Turning to B2, the Km in series [2] came out at 1729 ± 568 µM; in series [3] (other: hSGLT5 WT, Table 1 experiments) it was 226 ± 7 µM; in series [3] (other: transport of the labelled substrate, Michaelis-Menten fit, Fig. 2B), 167 µM.

B3: human SGLT4 (Homo sapiens) (protein)
chain: MSKELAAMGPGASGDGVRTETAPHIALDSRVGLHAYDISVVVIYFVFVIAVGIWSSIRASRGTIGGYFLAGRSMSWWPIGASLMSSNVGSGLFIGLAGTGAAGGLAVGGFEWNATWLLLALGWVFVPVYIAAGVVTMPQYLKKRFGGQRIQVYMSVLSLILYIFTKISTDIFSGALFIQMALGWNLYLSTGILLVVTAVYTIAGGLMAVIYTDALQTVIMVGGALVLMFLGFQDVGWYPGLEQRYRQAIPNVTVPNTTCHLPRPDAFHILRDPVSGDIPWPGLIFGLTVLATWCWCTDQVIVQRSLSAKSLSHAKGGSVLGGYLKILPMFFIVMPGMISRALFPDEVGCVDPDVCQRICGARVGCSNIAYPKLVMALMPVGLRGLMIAVIMAALMSSLTSIFNSSSTLFTIDVWQRFRRKSTEQELMVVGRVFVVFLVVISILWIPIIQSSNSGQLFDYIQAVTSYLAPPITALFLLAIFCKRVTEPGAFWGLVFGLGVGLLRMILEFSYPAPACGEVDRRPAVLKDFHYLYFAILLCGLTAIVIVIVSLCTTPIPEEQLTRLTWWTRNCPLSELEKEAHESTPEISERPAGECPAGGGAAENSSLGQEQPEAPSRSWGKLLWSWFCGLSGTPEQALSPAEKAALEQKLTSIEEEPLWRHVCNINAVLLLAINIFLWGYFA
notes: as for B2
In the case of B3, the Michaelis constant (Km) in series [4] was 81 ± 8 µM.
